From paper PMC5384453, “A multi-functional PEGylated gold(III) compound: potent anti-cancer properties and self-assembly into nanostructures for drug co-delivery” (Chemical Science, 2016)

How the values were obtained:
[1] = test system: A2780cis xenografts; test: In vivo inhibition of tumor growth in nude mice bearing A2780cis xenograft
Description: To further investigate the ability of 1 to treat drug-resistant tumors that should be of great interest in clinical application, in vivo antitumor experiments on nude mice bearing cisplatin-resistant A2780cis xenografts with 1 were conducted. […]
every 2 days for 24 days. The control group received equal volume of PBS only.
During the treatment period, the tumor volume and body weight of the nude mice were measured per two days. The tumor volume was calculated by the equation:
Volume (mm3) = l×w2/2, where l and w were the length and width of the tumor. At the end of the treatment, the nude mice were sacrificed and the tumor weight was […]
H&E staining and immunohistochemical (IHC) analysis of mice tissues. […] The expression of p53, Ki67, VEGFR2 and TUNEL was determined by IHC methods as reported previously. […]
animal study. […] During the treatment period, the tumor volume and body weight of the nude mice were measured […]
once every 2–3 days. The tumor volume was calculated by the equation: Volume (mm3) = l×w2/2, where l and w were the length and width of the tumor. At the end of the treatment, the nude mice were sacrificed and the tumor weight was measured. […]
of apoptosis of HCT116 cells was investigated by CellEvent Caspase-3/7 Green ReadyProbes Reagent (30 µL), similar to the procedure of the experiments on gold(III) […]

[2] = In vivo biodistribution by ICP-MS in nude mice bearing HCT116 xenografts; settings: single-dose i.v., 24 h post-treatment
Text: Significant pulmonary hemorrhage in the alveoli and a thickening of alveolar walls were found. Also, apoptotic hepatocytes and swollen renal epithelial cells were found, leading to subsequent shrinkage of kidney tubules. […] The lower systemic toxicity of 1 can be explained by the lower accumulation of 1 in the organs of mice treated at its effective dosage, as compared to that of 3 and Au1a (Fig. S23 ^†). […] This can be attributable to the nanostructures of 1, which may lead to in vivo tumor accumulation by the EPR effect.[55] […]
(§1) point of tumor growth inhibition study, the mice treated with complex 1, 3 and Au1a, respectively, were sacrificed and tissues including liver, spleen, lung, kidney and heart were harvested. The tissues were digested with 10% HCl in concentrated HNO3 (0.1 g of tissue/1 mL). The solution mixture was heated at 60 °C for 15 h, and then diluted 50 times by ultra-pure water for ICP-MS analysis.
(§2) Determination of in vivo biodistribution of complex 1, 3 and Au1a by ICP-MS.
Nude mice bearing HCT116 xenografts were treated with 1 (13 mg/kg), or equal molar amount of Au1a (2 mg/kg) or 3 (2 mg/kg) through intravenous injection. After 24 h of the injection, the mice were sacrificed and tissues from tumor, liver, spleen, lung, kidney and heart were harvested. The tissues were digested with 10% HCl in concentrated HNO3 (0.1 g of tissue/1 mL). […]

[3] = mouse
Description: The anti-tumor experiments using mice were approved by the animal ethics committees of Jinan University and The University of Hong Kong. […]
as §1, §2
Nude mice bearing HCT116 xenografts were treated with 1 (13 mg/kg), or equal molar amount of Au1a (2 mg/kg) or 3 (2 mg/kg) through intravenous injection. After 24 h of the injection, the mice were sacrificed and tissues from tumor, liver, spleen, lung, kidney and heart were harvested. The tissues were digested with 10% HCl in concentrated HNO3 (0.1 g of tissue/1 mL). The solution mixture was heated at 60 °C for 15 h, and then diluted 50 times by ultra-pure water for ICP-MS analysis.
Analysis of tumor tissue from mice treated with complexes 1 by UPLC-QTOF-MS. At the end point of tumor growth inhibition study, the mice treated with solvent control or complex 1 were sacrificed and the tumor tissues were harvested, followed by homogenization in 50% ice-cold acetonitrile (0.1 g/300 µL). […]

[4] = test system: NCM460 cells; test: Flow cytometric analysis of apoptosis with propidium iodide co-staining (Fig. S14, S15); settings: NCM460, 2 μM
Description: Analysis of induction of apoptosis in HCT116 and NCM460 cells after incubation
with gold(III) complexes and FITC-annexin V staining by flow cytometry.
dishes respectively. The cells were incubated at 37 °C under an atmosphere of 5%
CO2 for 48 h. The culture medium was then removed, washed with PBS solution. The
cells were then incubated with culture medium containing nanostructures of 1 (2 µM)
or Au1a (2 µM; with 1 vol% DMSO) at 37 °C under an atmosphere of 5% CO2 for 24
h. All the cells were harvested, and washed with PBS solution and annexin-binding
buffer solution. The cells were collected by centrifugation at 2000 rpm for 5 min, and
re-dispersed in annexin-binding buffer solution with cell concentration of ca. 110 6
cells/mL. FITC- Annexin V (5 µL) was added to an aliquot of the cell suspension
(100 µL), and the cells were incubated at room temperature in dark for 15 min. The
solution mixture was then diluted by annexin-binding buffer solution (400 µL), kept
in ice and analyzed by flow cytometry immediately.
with gold(III) complexes by CellEvent Caspase-3/7 Green Detection Reagent
staining and flow cytometry. The procedure is similar to that using FITC-Annexin V
staining, except that the harvested cells were re-dispersed in PBS solution with 2%
BSA (w/w; 100 µL) and incubated with CellEvent Caspase-3/7 Green Detection
Reagent (2.5 µM) at 37 °C for 30 min, and subsequently stained with propidium […]

| Molecule | reduction of tumor volume ([1]; 4 mg kg^–1, intravenous injections every 2–3 days for 13 days, n = 5) | mouse death / body weight ([1]; A2780cis xenograft nude mice, 4 mg kg^–1 i.v., 13 days) | higher accumulation in tumor compared to mice treated with 3 ([2]; equal molar amount (1 13 mg kg^–1, 3 2 mg kg^–1)) [fold] | higher accumulation in tumor compared to mice treated with Au1a ([2]; equal molar amount (1 13 mg kg^–1, Au1a 2 mg kg^–1)) [fold] | hydrolysis in vivo (species found in tumor tissues) [3] | viability (Q3 region, corrected) ([4]; 24 h) [%] | viability (Q3 region, corrected) ([4]; 36 h) [%] |
| --- | --- | --- | --- | --- | --- | --- | --- |
| [Au(TPP–COO–PEG5000–OCH3)]Cl [Compound 1] | Over 52% | no mouse death or significant loss in body weight | 2.0 | 3.3 | [Au(TPP–COOH)]^+ was found in the UPLC-QTOF-MS of tumor tissues |  |  |
| C1=Cc2nc1c(-c1ccccc1)c1ccc([n-]1)c(-c1ccccc1)c1nc(c(-c3ccccc3)c3ccc([n-]3)c2-c2ccccc2)C=C1.[Au+3].[Cl-] [Au1a, [Au(TPP)]Cl, reference compound] |  |  |  |  |  | 61.14 | 56.64 |
